Measurements reported in patent US20100021987.

Key:
[1] = target: 6xHis-hSUMO-3-X-eGFP, X = A
[2] = target: 6xHis-hSUMO-3-X-eGFP, X = C
[3] = target: 6xHis-hSUMO-3-X-eGFP, X = D
[4] = target: 6xHis-hSUMO-3-X-eGFP, X = E
[5] = target: 6xHis-hSUMO-3-X-eGFP, X = F
[6] = target: 6xHis-hSUMO-3-X-eGFP, X = G
[7] = target: 6xHis-hSUMO-3-X-eGFP, X = H
[8] = target: 6xHis-hSUMO-3-X-eGFP, X = I
[9] = target: 6xHis-hSUMO-3-X-eGFP, X = K
[10] = target: 6xHis-hSUMO-3-X-eGFP, X = L
[11] = target: 6xHis-hSUMO-3-X-eGFP, X = N
[12] = target: 6xHis-hSUMO-3-X-eGFP, X = P
[13] = target: 6xHis-hSUMO-3-X-eGFP, X = Q
[14] = target: 6xHis-hSUMO-3-X-eGFP, X = R
[15] = target: 6xHis-hSUMO-3-X-eGFP, X = S
[16] = target: 6xHis-hSUMO-3-X-eGFP, X = T
[17] = target: 6xHis-hSUMO-3-X-eGFP, X = V
[18] = target: 6xHis-hSUMO-3-X-eGFP, X = W
[19] = target: 6xHis-hSUMO-3-X-eGFP, X = Y

B1: Saccharomyces cerevisiae Ulp1 SUMO protease catalytic domain (protein)
chain: MGLVPELNEKDDDQVQKALASRENTQLMNRDNIEITVRDFKTLAPRRWLNDTIIEFFMKYIEKSTPNTVAFNSFFYTNLSERGYQGVRRWMKRKKTQIDKLDKIFTPINLNQSHWALGIIDLKKKTIGYVDSLSNGPNAMSFAILTDLQKYVMEESKHTIGEDFDLIHLDCPQQPNGYDCGIYVCMNTLYGSADAPLDFDYKDAIRMRRFIAHLILTDALKLEHHHHHH
- activity level (grade) (6xHis-AtSUMO1-eGFP): ++
- cleavage, 2-fold enzyme dilution series, SDS-PAGE (6xHis-AtSUMO1-eGFP): Both hSENP2 and yUlp1 cleaved the AtSUMO1 fusion similarly
- cleavage, time course, SDS-PAGE (6xHis-AtSUMO1-eGFP): cleaving not only T-SUMO but also AtSUMO1 and AtSUMO2 significantly better than did hSENP2
- activity level (grade) (6xHis-AtSUMO2-eGFP): ++
- cleavage, 2-fold enzyme dilution series, SDS-PAGE (6xHis-AtSUMO2-eGFP): a slight advantage in the cleavage of AtSUMO2-eGFP
- cleavage, time course, SDS-PAGE (6xHis-AtSUMO2-eGFP): cleaving not only T-SUMO but also AtSUMO1 and AtSUMO2 significantly better than did hSENP2
- activity level (grade) (6xHis-T-SUMO-eGFP): ++
- cleavage, 2-fold enzyme dilution series, SDS-PAGE (6xHis-T-SUMO-eGFP): yUlp1 had a distinct advantage in the cleavage of T-SUMO-eGFP
- cleavage, time course, SDS-PAGE (6xHis-T-SUMO-eGFP): cleaving not only T-SUMO but also AtSUMO1 and AtSUMO2 significantly better than did hSENP2
- activity level (grade) (6xHis-hSUMO-1-eGFP): +
- cleavage, time course, SDS-PAGE (6xHis-hSUMO-1-eGFP): both enzymes cleaving hSUMO-1-eGFP poorly
- Percent cleavage, enzyme:substrate 1:100 [1]: 96.3%
- Percent cleavage, enzyme:substrate 1:1000 [1]: 27.1%
- Percent cleavage, enzyme:substrate 1:100 [2]: 98.4%
- Percent cleavage, enzyme:substrate 1:1000 [2]: 25.3%
- Percent cleavage, enzyme:substrate 1:100 [3]: 92.3%
- Percent cleavage, enzyme:substrate 1:1000 [3]: 3.3%
- Percent cleavage, enzyme:substrate 1:100 [4]: 80.1%
- Percent cleavage, enzyme:substrate 1:1000 [4]: 11.3%
- Percent cleavage, enzyme:substrate 1:100 [5]: 95.4%
- Percent cleavage, enzyme:substrate 1:1000 [5]: 27%
- Percent cleavage, enzyme:substrate 1:100 [6]: 96.5%
- Percent cleavage, enzyme:substrate 1:1000 [6]: 27%
- Percent cleavage, enzyme:substrate 1:100 [7]: 90.8%
- Percent cleavage, enzyme:substrate 1:1000 [7]: 25.5%
- Percent cleavage, enzyme:substrate 1:100 [8]: 1.9%
- Percent cleavage, enzyme:substrate 1:1000 [8]: 0%
- Percent cleavage, enzyme:substrate 1:100 [9]: 22.4%
- Percent cleavage, enzyme:substrate 1:1000 [9]: 0%
- Percent cleavage, enzyme:substrate 1:100 [10]: 4.4%
- Percent cleavage, enzyme:substrate 1:1000 [10]: 0%
- Percent cleavage, enzyme:substrate 1:100 [11]: 97.9%
- Percent cleavage, enzyme:substrate 1:1000 [11]: 16.9%
- Percent cleavage, enzyme:substrate 1:100 [12]: 0%
- Percent cleavage, enzyme:substrate 1:1000 [12]: 0%
- Percent cleavage, enzyme:substrate 1:100 [13]: 65.5%
- Percent cleavage, enzyme:substrate 1:1000 [13]: 3.7%
- Percent cleavage, enzyme:substrate 1:100 [14]: 96.6%
- Percent cleavage, enzyme:substrate 1:1000 [14]: 17.2%
- Percent cleavage, enzyme:substrate 1:100 [15]: 98.2%
- Percent cleavage, enzyme:substrate 1:1000 [15]: 16.7%
- Percent cleavage, enzyme:substrate 1:100 [16]: 95.8%
- Percent cleavage, enzyme:substrate 1:1000 [16]: 14.3%
- Percent cleavage, enzyme:substrate 1:100 [17]: 20.2%
- Percent cleavage, enzyme:substrate 1:1000 [17]: 4%
- Percent cleavage, enzyme:substrate 1:100 [18]: 89.7%
- Percent cleavage, enzyme:substrate 1:1000 [18]: 16.8%
- Percent cleavage, enzyme:substrate 1:100 [19]: 96.9%
- Percent cleavage, enzyme:substrate 1:1000 [19]: 16.9%
- Kcat (6xHis-hSUMO-3-eGFP): Kcat = 0.027
- Km (6xHis-hSUMO-3-eGFP): Km = 15.8 mM
- Percent cleavage, enzyme:substrate 1:100 (6xHis-hSUMO-3-eGFP): 98.3%
- Percent cleavage, enzyme:substrate 1:1000 (6xHis-hSUMO-3-eGFP): 18.4%
- activity level (grade) (6xHis-hSUMO-3-eGFP): +
- cleavage, time course, SDS-PAGE (6xHis-hSUMO-3-eGFP): yUlp1 was able to cleave apparently less than half of the substrate in 4 hrs.
- Kcat (6xHis-ySmt3-eGFP): Kcat = 0.40
- Km (6xHis-ySmt3-eGFP): Km = 4.5 mM
- activity level (grade) (6xHis-ySmt3-eGFP): ++++
- cleavage, time course, SDS-PAGE (6xHis-ySmt3-eGFP): both enzymes cleaving hSUMO-1-eGFP poorly and ySmt3-eGFP well

B2: human SENP1 (hSENP1) SUMO protease catalytic domain (protein)
chain: MASFPEITEEMEKEIKNVFRNGNQDEVLSEAFRLTITRKDIQTLNHLNWLNDEIINFYMNMLMERSKEKGLPSVHAFNTFFFTKLKTAGYQAVKRWTKKVDVFSVDILLVPIHLGVHWCLAVVDFRKKNITYYDSMGGINNEACRILLQYLKQESIDKKRKEFDTNGWQLFSKKSQIPQQMNGSDCGMFACKYADCITKDRPINFTQQHMPYFRKRMVWEILHRKLLEHHHHHH
- activity level (grade) (6xHis-AtSUMO1-eGFP): +/-
- cleavage, single enzyme concentration, SDS-PAGE (6xHis-AtSUMO1-eGFP): It also cleaved the other 4 fusions, but to a much lesser extent
- activity level (grade) (6xHis-AtSUMO2-eGFP): +/-
- cleavage, single enzyme concentration, SDS-PAGE (6xHis-AtSUMO2-eGFP): It also cleaved the other 4 fusions, but to a much lesser extent
- activity level (grade) (6xHis-T-SUMO-eGFP): +/-
- cleavage, single enzyme concentration, SDS-PAGE (6xHis-T-SUMO-eGFP): It also cleaved the other 4 fusions, but to a much lesser extent
- activity level (grade) (6xHis-hSUMO-1-eGFP): +/-
- cleavage, single enzyme concentration, SDS-PAGE (6xHis-hSUMO-1-eGFP): It also cleaved the other 4 fusions, but to a much lesser extent
- activity level (grade) (6xHis-hSUMO-3-eGFP): +
- cleavage, single enzyme concentration, SDS-PAGE (6xHis-hSUMO-3-eGFP): cleaved ySmt3 the best, followed by hSUMO-3
- activity level (grade) (6xHis-ySmt3-eGFP): ++
- cleavage, single enzyme concentration, SDS-PAGE (6xHis-ySmt3-eGFP): hSENP1, which cleaved ySmt3 the best

B3: human SENP6 (hSENP6) SUMO protease catalytic domain (protein)
chain: MGENHTIFIGPVEKLIVYPPPPAKGGISVTNEDLHCLNEGEFLNDVIIDFYLKYLVLEKLKKEDADRIHIFSSFFYKRLNQRERRNHETTNLSIQQKRHGRVKTWTRHVDIFEKDFIFVPLNEAAHWFLAVVCFPGLEKPKYEPNPHYHENAVIQKCSTVEDSCISSSASEMESCSQNSSAKPVIKKMLNKKHCIAVIDSNPGQEESDPRYKRNICSVKYSVKKINHTASENEEFNKGESTSQKVADRTKSENGLQNESLSSTHHTDGLSKIRLNYSDESPEAGKMLEDELVDFSEDQDNQDDSSDDGFLADDNCSSEIGQWHLKPTICKQPCILLMDSLRGPSRSNVVKILREYLEVEWEVKKGSKRSFSKDVMKGSNPKVPQQNNFSDCGVYVLQYVESFFENPILSFELPMNLANWFPPPRMRTKREEIRNIILKLQEDQSKEKRKHKDTYSTEAPLGEGTEQYVNSISDLEHHHHHH
- activity level (grade) (6xHis-AtSUMO1-eGFP): -
- cleavage, single enzyme concentration, SDS-PAGE (6xHis-AtSUMO1-eGFP): did not digest the others at the incubation time and enzyme concentration used
- activity level (grade) (6xHis-AtSUMO2-eGFP): -
- cleavage, single enzyme concentration, SDS-PAGE (6xHis-AtSUMO2-eGFP): did not digest the others at the incubation time and enzyme concentration used
- activity level (grade) (6xHis-T-SUMO-eGFP): -
- cleavage, single enzyme concentration, SDS-PAGE (6xHis-T-SUMO-eGFP): did not digest the others at the incubation time and enzyme concentration used
- activity level (grade) (6xHis-hSUMO-1-eGFP): -
- cleavage, single enzyme concentration, SDS-PAGE (6xHis-hSUMO-1-eGFP): did not digest the others at the incubation time and enzyme concentration used
- activity level (grade) (6xHis-hSUMO-3-eGFP): +/-
- cleavage, single enzyme concentration, SDS-PAGE (6xHis-hSUMO-3-eGFP): demonstrated partial cleavage of hSUMO-3-eGFP
- activity level (grade) (6xHis-ySmt3-eGFP): -
- cleavage, single enzyme concentration, SDS-PAGE (6xHis-ySmt3-eGFP): did not digest the others at the incubation time and enzyme concentration used

B4: Arabidopsis thalania ULP1c (AtULP1c) SUMO protease catalytic domain (protein)
chain: MVVEEACELPEGLPEDIYYPSSDQSDGRDLVQVSLKDLKCLSPGEYLTSPVINFYIRYVQHHVFSADKTAANCHFFNTFFYKKLTEAVSYKGNDRDAYFVKFRRWWKGFDLFCKSYIFIPIHEDLHWSLVIICIPDKEDESGLTIIHLDSLGLHPRNLIFNNVKRFLREEWNYLNQDAPLDLPISAKVWRDLPNMINEAEVQVPQQKNDFDCGLFLLFFIRRFIEEAPQRLTLQDLKMIHKKWFKPEEASALRIKIWNILVDLFRKGNQTDLEHHHHHH
- activity level (grade) (6xHis-AtSUMO1-eGFP): -
- cleavage, single enzyme concentration, SDS-PAGE (6xHis-AtSUMO1-eGFP): AtULP1c did not show activity against any of the SUMO fusions
- activity level (grade) (6xHis-AtSUMO2-eGFP): -
- cleavage, single enzyme concentration, SDS-PAGE (6xHis-AtSUMO2-eGFP): AtULP1c did not show activity against any of the SUMO fusions
- activity level (grade) (6xHis-T-SUMO-eGFP): -
- cleavage, single enzyme concentration, SDS-PAGE (6xHis-T-SUMO-eGFP): AtULP1c did not show activity against any of the SUMO fusions
- activity level (grade) (6xHis-hSUMO-1-eGFP): -
- cleavage, single enzyme concentration, SDS-PAGE (6xHis-hSUMO-1-eGFP): AtULP1c did not show activity against any of the SUMO fusions
- activity level (grade) (6xHis-hSUMO-3-eGFP): -
- cleavage, single enzyme concentration, SDS-PAGE (6xHis-hSUMO-3-eGFP): AtULP1c did not show activity against any of the SUMO fusions
- activity level (grade) (6xHis-ySmt3-eGFP): -
- cleavage, single enzyme concentration, SDS-PAGE (6xHis-ySmt3-eGFP): AtULP1c did not show activity against any of the SUMO fusions
